{
  "source": "paper PMC4000578",
  "about": "(Molecular microbiology, 2014)",
  "proteins": {"B1": {"name": "BrlR-His6V5 (Biofilm resistance locus Regulator with a C-terminal His6V5-tag) (natural protein, Pseudomonas aeruginosa PAO1, UniProt Q9HUT5 1-270, looked up)", "chain": "MLTIGQLARIFEISTKTLRHYDAIGLFVPARTGSDNGYRYYQPEQIEQLSRILALRRLDVPLEAIDRLKRDGALDDPQRLRHFLQRHQHTLREEISARQRLLAELDRTLATLAHWRIRNMHARIVERPAFSVVGMEYFGSAPGDTIGQLWERFIPREHEIAGKHDPEVSYGICAQQPNGEFHYVAGFEVQEGWPVPEGMVRFQVPAQKYAVFTHKGTAPQIAESFQAIYSHLLAERGLEPKAGVDFEYYDQRFRGPLDPNSQVDLYIPIY"}},
  "biological_target": "the molecule itself",
  "assay": "cross-linking",
  "data": [
    {"protein": "B1", "values": [
      {"measurement": "stoichiometry N", "value": 2}
    ]}
  ]
}
